The values that follow come from patent US20220017615A1 (SHANGHAI PHARMAEXPLORER, published 2022).

Where a chain is given by its changes, count along the chain named.

Assay [1] concerns the target T1, cynomolgus CD47, on CHOK1-cCD47 stable cell line (cynomolgus).
T1 construct: whole, on cells; check before use; also called CHOK1/cynoCD47; monkey-derived CD47
The assay can be described thus: flow cytometry (FACS) on CHOK1-cynoCD47 cells, mean fluorescence intensity. Background: In flow cytometry, cells or beads pass a laser one at a time.
Experimental: (§1) The CHOK1-hCD47 stable cell lines and CHOK1-cCD47 stable cell lines were expanded to 90% confluence in a T-75 cell culture flask, the medium was exhausted, washed twice with HBSS buffer (Hanks balanced salt solution) (purchased from Invitrogen), and then treated and collected with enzyme-free cell dissociation solution (Versene solution: purchased from Life technology). The cells were washed twice with HBSS buffer. After counted, the cells were diluted with HBSS to 2×10⁶ cells per ml, added with 1% goat serum blocking solution, wherein the percentage was the mass percantage, incubated on ice for 30 minutes, and then washed twice with HBSS by centrifugation. […] The plate was washed 3 times with FACS buffer by centrifugation, added with 100 μl fixative solution [4% (v/v) Paraformaldehyde] per well to suspend the cells. 10 minutes later, it was washed twice with FACS buffer by centrifugation. The cells were suspended with 100 microliters of FACS buffer, FACS (FACS Calibur, purchased from BD) was used for detection and the results were analyzed.

The target in assay [2] is T2, mouse CD47, on CHOK1/mCD47 cells (mouse, UniProt Q61735 19-303).
T2 construct: whole, on cells; also called murine CD47
T2 sequence (looked up): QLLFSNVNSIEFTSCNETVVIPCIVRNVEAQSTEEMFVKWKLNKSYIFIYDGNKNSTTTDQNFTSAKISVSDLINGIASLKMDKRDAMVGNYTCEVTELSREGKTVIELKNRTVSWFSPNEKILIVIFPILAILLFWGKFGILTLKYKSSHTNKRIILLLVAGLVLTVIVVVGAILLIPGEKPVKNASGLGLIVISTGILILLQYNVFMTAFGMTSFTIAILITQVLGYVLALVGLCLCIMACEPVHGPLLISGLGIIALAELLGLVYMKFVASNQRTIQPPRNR
Kind of assay: flow cytometry (FACS) on CHOK1-mCD47 cells, mean fluorescence intensity.

Assay [3] concerns the target T3, human CD47, full length, on transfected cells (human, UniProt Q08722 19-323).
T3 construct: whole, on cells; also called CHOK1-hCD47
The assay can be described thus: flow cytometry (FACS) on CHOK1-hCD47 cells, mean fluorescence intensity.
Experimental: as §1

Assay [4] concerns the target T4, biotin-labeled CD47 extracellular domain protein (CD47-ECD) (UniProt Q08722 19-139, limits assumed, biotin-labeled (sites not given)).
T4 construct: extracellular domain; also called CD47 protein
Kind of assay: blocking ELISA: SIRPα-hFc coated, biotin-labeled CD47-ECD added with the antibody, OD450; blocked ligand SIRPα-hFc.

Assay [5] deals with T5, His-tagged CD47 recombinant protein, CD47-His (human, UniProt Q08722 19-141, limits assumed).
T5 construct: it is not restated for CD47-His; also called human CD47-His protein; antigen CD47-His; not shown: His tag
Kind of assay: BLI (Octet Red 96), antibody on AHC sensor, CD47-His 100 nM. (In BLI a coated tip is dipped into the sample, and binding shifts an interference pattern.)

Assay [6] deals with T4, biotin-labeled CD47 extracellular …. The assay can be described thus: blocking ELISA, biotin-CD47-ECD on coated SIRPα-hFc; Ab 1.6 nM. For orientation: ELISA stands for enzyme-linked immunosorbent assay.
Assay [7] concerns the target T5, His-tagged CD47 recombinant protein, …. Kind of assay: ELISA on coated CD47-His; Ab 0.533 nM.
Experimental: (§2) The plate was sealed with plastic film and incubated at 4° C. overnight. The plate was washed twice with plate washing solution [PBS+0.01% (v/v) Tween20] the next day, and blocking solution [PBS+0.01% (v/v) Tween20 +1% (w/w) BSA] was added to block it at room temperature for 2 hours. […] After incubation at 37° C. for 2 hours, the plates were washed three times with plate washing solution [PBS+0.01% (v/v) Tween 20]. HRP (horseradish peroxidase) labeled secondary antibody (purchased from Sigma) was added, incubated at 37° C. for 2 hours, and then washed three times with plate washing solution [PBS+0.01% (v/v) Tween 20]. 1000 of TMB substrate was added to each well. After incubated at room temperature for 30 minutes, the plate was added with 100 μl of stop solution (1.0N HCl) to each well.
For assay [8], the target named is T1, cynomolgus CD47, on CHOK1-cCD47 stable …. Kind of assay: FACS CHOK1-cCD47; Ab 40 nM.
Experimental: as §1
Assay [9] shares this target. Kind of assay: FACS CHOK1-cCD47; Ab 200 nM.
For assay [10], the target named is T5, His-tagged CD47 recombinant protein, …. Kind of assay: ELISA on coated CD47-His; Ab 2.667 nM.
Experimental: as §2
The target in assay [11] is T1, cynomolgus CD47, on CHOK1-cCD47 stable …. Kind of assay: FACS CHOK1-cCD47; Ab 1.6 nM.
Experimental: as §1
In assay [12] the target is T4, biotin-labeled CD47 extracellular …. Kind of assay: blocking ELISA, biotin-CD47-ECD on coated SIRPα-hFc; Ab 0.0128 nM.
Experimental: (§3) The plate was sealed with plastic film and incubated at 4° C. overnight. The plate was washed twice with plate washing solution [PBS+0.01% (v/v) Tween20] on the next day, and blocking solution [PBS+0.01% (v/v) Tween20 +1% (w/w) BSA] was added to block it at room temperature for 2 hours. […] After incubation at 37° C. for 2 hours, the plate was washed three times with the plate washing solution [PBS+0.01% (v/v) Tween 20]. HRP (horseradish peroxidase) labeled avidin diluent (purchased from Sigma) was added as 100 microliters per well, and after the plate was incubated for 2 hours at 37° C., it was washed 3 times with washing solution [PBS+0.01% (v/v) Tween 20]. 100 μl of TMB substrate was added to each well. After incubated at room temperature for 30 minutes, the plate was added with 100 μl of stop solution (1.0N HCl) to each well.
Assay [13] concerns the target T1, cynomolgus CD47, on CHOK1-cCD47 stable …. The assay can be described thus: FACS CHOK1-cCD47; Ab 0.0128 nM.
Experimental: as §1
Assay [14] deals with T4, biotin-labeled CD47 extracellular …. The assay can be described thus: blocking ELISA, biotin-CD47-ECD on coated SIRPα-hFc; Ab 0.32 nM.
Experimental: as §3
For assay [15], the target named is T1, cynomolgus CD47, on CHOK1-cCD47 stable …. The assay can be described thus: FACS CHOK1-cCD47; Ab 0 nM (background).
Experimental: as §1
In assay [16] the target is T5, His-tagged CD47 recombinant protein, …. Kind of assay: ELISA on coated CD47-His; Ab 0.004 nM.
Experimental: as §2
Assay [17] deals with T3, human CD47, full length, on transfected …. Kind of assay: FACS CHOK1-hCD47; Ab 0.064 nM.
Experimental: as §1
In assay [18] the target is T1, cynomolgus CD47, on CHOK1-cCD47 stable …. The assay can be described thus: FACS CHOK1-cCD47; Ab 8 nM.
Experimental: as §1
Assay [19] shares this target. The assay can be described thus: FACS CHOK1-cCD47; Ab 0.32 nM.
Experimental: as §1
In assay [20] the target is T4, biotin-labeled CD47 extracellular …. The assay can be described thus: blocking ELISA, biotin-CD47-ECD on coated SIRPα-hFc; Ab 0 nM.
Experimental: as §3
Assay [21] has as its target T3, human CD47, full length, on transfected …. Kind of assay: FACS CHOK1-hCD47; Ab 8 nM.
For assay [22], the target named is T4, biotin-labeled CD47 extracellular …. The assay can be described thus: blocking ELISA, biotin-CD47-ECD on coated SIRPα-hFc; Ab 40 nM.
Experimental: as §3
Assay [23] concerns the target T3, human CD47, full length, on transfected …. Kind of assay: FACS CHOK1-hCD47; Ab 1.6 nM.
Experimental: as §1
For assay [24], the target named is T4, biotin-labeled CD47 extracellular …. The assay can be described thus: blocking ELISA, biotin-CD47-ECD on coated SIRPα-hFc; Ab 200 nM.
The target is the same in assay [25]. The assay can be described thus: blocking ELISA, biotin-CD47-ECD on coated SIRPα-hFc; Ab 0.064 nM.
In assay [26] the target is T3, human CD47, full length, on transfected …. The assay can be described thus: FACS CHOK1-hCD47; Ab 0.0128 nM.
For assay [27] the target is unchanged. Kind of assay: FACS CHOK1-hCD47; Ab 0 nM (background).
Experimental: as §1
Assay [28] shares this target. The assay can be described thus: FACS CHOK1-hCD47; Ab 40 nM.
Experimental: as §1
Assay [29] has the same target. Kind of assay: FACS CHOK1-hCD47; Ab 0.32 nM.
Assay [30] deals with T5, His-tagged CD47 recombinant protein, …. Kind of assay: ELISA on coated CD47-His; Ab 0 nM (background).
Experimental: as §2
The target in assay [31] is T3, human CD47, full length, on transfected …. The assay can be described thus: FACS CHOK1-hCD47; Ab 200 nM.
Experimental: as §1
The target in assay [32] is T4, biotin-labeled CD47 extracellular …. Kind of assay: blocking ELISA, biotin-CD47-ECD on coated SIRPα-hFc; Ab 8 nM.
In assay [33] the target is T1, cynomolgus CD47, on CHOK1-cCD47 stable …. The assay can be described thus: FACS CHOK1-cCD47; Ab 0.064 nM.
Experimental: as §1
Assay [34] addresses T5, His-tagged CD47 recombinant protein, …. Kind of assay: ELISA on coated CD47-His; Ab 66.667 nM.
Experimental: as §2
For assay [35] the target is unchanged. The assay can be described thus: ELISA on coated CD47-His; Ab 0.021 nM.
Experimental: as §2
The target is the same in assay [36]. Kind of assay: ELISA on coated CD47-His; Ab 0.107 nM.
Experimental: as §2
The target is the same in assay [37]. Kind of assay: ELISA on coated CD47-His; Ab 13.333 nM.
Experimental: as §2

B1: Hu5F9-G4 (antibody, V domains shown)
VH: QVQLVQSGAEVKKPGASVKVSCKASGYTFTNYNMHWVRQAPGQRLEWMGTIYPGNDDTSYNQKFKDRVTITADTSASTAYMELSSLRSEDTAVYYCARGGYRAMDYWGQGTLVTVSS
VL: DIVMTQSPLSLPVTPGEPASISCRSSQSIVYSNGNTYLGWYLQKPGQSPQLLIYKVSNRFSGVPDRFSGSGSGTDFTLKISRVEAEDVGVYYCFQGSHVPYTFGQGTKLEIKR
Broadly, the EC50 (read off the curve) is the midpoint of the concentration-response curve. In the case of B1, the “EC50 (read off the curve)” value in assay [1] is about 3 nM.

B2: 29A03 WT (antibody, V domains shown)
VH: EVQLQQSGAELVKPGASVKMSCKASGYTFTNYWITWVKQRPGQGLEWIGDIYPVSGGTDYNEKFKTRATLTVDTSSSTAYMHLSSLTSEDSAVYYCARKGRGGVDYWGQGTTLTVSS
VL: DILMTQTPLSLPVSLGDQASISCRSSQSIVHSNGNTYLEWYLQKPGQSPKLLIYKVSNRFSGVPDRFSGSGSGTDFTLKISRVEAEDLGVYFCSQSTHVPYTFGGGTKLEIK
notes: WT = NG site of CDR-L1 not mutated
On to B2, for which the “EC50 (read off the curve)” value in assay [1] is about 3 nM; in [2], about 10 nM; in assay [3], about 5 nM.

B3: 29A03 QG (antibody, V domains shown)
VH: B2 VH
VL: B2 VL with N33Q
Turning to B3, the “IC50 (read off the curve)” value in [4] is about 3 nM. Besides, the “EC50 (read off the curve)” value in [1] was about 3 nM; in assay [2], about 10 nM; in assay [3], about 5 nM.

B4: c29A03NA (antibody, V domains shown)
VH: B2 VH
VL: B2 VL with G34A
notes: Phage-derived clone 29A03 with the NG site of CDRL1 mutated to NA
As usually defined, the Kd is the concentration at which binding is half-saturated. The koff is a measure of how fast the partners let go of each other. Usually kon stands for a measure of how fast the partners come together. As for B4, in assay [4], the “IC50 (read off the curve)” value was about 1 nM. Moreover, the “EC50 (read off the curve)” value in assay [1] was about 3 nM. For the same molecule, in [2], the “EC50 (read off the curve)” value was about 10 nM. The “EC50 (read off the curve)” value in [3] is about 5 nM. In assay [5], the Kd was 4.69 nM, the off-rate constant (koff) worked out at 0.00207 s⁻¹ and the on-rate (kon) turned out to be 442000 M⁻¹ s⁻¹.

B5: 132D1E5 (antibody, V domains shown)
VH: QVQLQQPGAELVRPGSSVKLSCKASGYTFTNNWMHWVKQRPLQGLEWIGNIDPSDSETHYNQKFKDKATLTVDKSSTTAYIQLSSLTSEDSAVYYCARWRGGGRGAMDYWGQGTSVTVSS
VL: DVQITQSPSYLAASPGETITINCRTSKNISKFLAWYQEKPGKTNKLLIYSGSTLQSGIPSRFSGSGSGTDFTLTISNLEPEDFAMYYCQQHNEYPWTFGRGTKLEIK
notes: Murine hybridoma antibody purified on protein G
In the case of B5, the “OD450 nm of CD47 bound to SIRPα” value in [6] worked out at 0.16; in [12], 2.92; in assay [14], 0.79; in assay [20] it was 2.89; in assay [22], 0.08; in assay [24], 0.08. In addition, the “OD450 nm of CD47 bound to SIRPα” value in [25] was 2.55; in [32], 0.07. Also, the OD450 nm in assay [7] amounted to 2.96; in assay [10] it was 3.07; in assay [16] it was 0.14; in assay [30], 0.06; in [34], 2.88; in assay [35], 0.49. Further, the values for the OD450 nm in [36] and in assay [37] were 1.83 and 2.95, respectively. For the same molecule, the mean fluorescence intensity came to 5610 in assay [8]; 6970 in assay [9]; 6060 in assay [11]; 224 in assay [13]; 72.5 in assay [15]; 318 in assay [17]. In addition, the mean fluorescence intensity in [18] is 8740; in [19], 2060; in assay [21] it was 6310; in assay [23] it was 3750; in assay [26], 88.4; in assay [27], 18.1. Further, the mean fluorescence intensity in assay [28] was 8230; in assay [29] it was 1330; in assay [31] it was 7100; in assay [33], 689.
